Data set [1] concerns the molecule itself. Description: crystal structure; My11–My13 at 10 mg/ml; 0.1 M MES pH 6, 0.22 M lithium sulfate, 13% PEG 8000; 3.5 Å; molecular replacement with the (My13)2 dimer module of 2R15.
Data set [2] concerns the molecule itself. The data set can be described thus: small angle X-ray scattering (SAXS); 4–15 mg/ml, 25 mM Tris/HCl pH 7.5, 150 mM NaCl, 290 K; extrapolated to infinite dilution; mass by comparison with bovine serum albumin.

B1: myomesin My11–My13 (residues 1352–1666) (domain or fragment, human, UniProt P52179 1352-1666, looked up)
chain: WIRKQGPHFVEYLSWEVTGECNVLLKCKVANIKKETHIVWYKDEREISVDEKHDFKDGICTLLITEFSKKDAGIYEVILKDDRGKDKSRLKLVDEAFKELMMEVCKKIALSATDLKIQSTAEGIQLYSFVTYYVEDLKVNWSHNGSAIRYSDRVKTGVTGEQIWLQINEPTPNDKGKYVMELFDGKTGHQKTVDLSGQAYDEAYAEFQRLKQAAIAEKNRARVLGGLPDVVTIQEGKALNLTCNVWGDPPPEVSWLKNEKALASDDHCNLKFEAGRTAYFTINGVSTADSGKYGLVVKNKYGSETSDFTVSVFIP
notes: myomesin (MYOM1), human, Ig domains My11–My13, residues 1352–1666 of MYOM1_HUMAN; Vector pET151/D-TOPO with N-terminal His6 and TEV site; also called My11–My13 triplet; source: E. coli BL21 (DE3) CodonPlus-RP, purified (Ni-NTA, size exclusion chromatography)
With B1, the binding result in data set [1] is given as “binds”.

B2: myomesin My9–My13 (residues 1141–1666) (domain or fragment, human, UniProt P52179 1141-1666, looked up)
chain: TKEVVVNVDDDGVISLNFECDKMTPKSEFSWSKDYVSTEDSPRLEVESKGNKTKMTFKDLGMDDLGIYSCDVTDTDGIASSYLIDEEELKRLLALSHEHKFPTVPVKSELAVEILEKGQVRFWMQAEKLSGNAKVNYIFNEKEIFEGPKYKMHIDRNTGIIEMFMEKLQDEDEGTYTFQLQDGKATNHSTVVLVGDVFKKLQKEAEFQRQEWIRKQGPHFVEYLSWEVTGECNVLLKCKVANIKKETHIVWYKDEREISVDEKHDFKDGICTLLITEFSKKDAGIYEVILKDDRGKDKSRLKLVDEAFKELMMEVCKKIALSATDLKIQSTAEGIQLYSFVTYYVEDLKVNWSHNGSAIRYSDRVKTGVTGEQIWLQINEPTPNDKGKYVMELFDGKTGHQKTVDLSGQAYDEAYAEFQRLKQAAIAEKNRARVLGGLPDVVTIQEGKALNLTCNVWGDPPPEVSWLKNEKALASDDHCNLKFEAGRTAYFTINGVSTADSGKYGLVVKNKYGSETSDFTVSVFIP
notes: myomesin (MYOM1), human, Ig domains My9–My13, residues 1141–1666 of MYOM1_HUMAN; Vector pET151/D-TOPO with N-terminal His6 and TEV site; also called C-terminal myomesin filament; My9–My10–My11–My12–(My13)2–My12′–My11′–My10′–My9′; source: E. coli BL21 (DE3) CodonPlus-RP, purified (Ni-NTA, size exclusion chromatography)
With B2, the “stoichiometry N” value in data set [2] is 2.

The stoichiometry N is a count of units in the complex or per binding partner.

Values taken from paper PMC3279516, “Superhelical Architecture of the Myosin Filament-Linking Protein Myomesin with Unusual Elastic Properties” (PLoS Biology, 2012).
